Patent US20220281948A1 (published 2022)

How the values were obtained:
Experiment in all cases: multimer staining
[1] = target: T1, CCND1 peptide on HLA-DPA1*01:03 / HLA-DPB1*04:01 (human)
T1 peptide: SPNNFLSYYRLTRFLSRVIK

[2] = target: T2, HSD17B12 peptide on HLA-DPA1*01:03 / HLA-DPB1*04:01 (human)
T2 peptide: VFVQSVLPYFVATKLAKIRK

[3] = target: T3, LGSN peptide on HLA-DPA1*01:03 / HLA-DPB1*04:01 (human)
T3 peptide: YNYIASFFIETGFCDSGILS

[4] = target: T4, MAGE-A2 peptide on HLA-DPA1*01:03 / HLA-DPB1*04:01 (human)
T4 peptide: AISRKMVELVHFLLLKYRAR

[5] = target: T5, MUC5AC peptide on HLA-DPA1*01:03 / HLA-DPB1*04:01 (human)
T5 peptide: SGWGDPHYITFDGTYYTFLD

B1: 03-CCND1219-238 (TCR)
alpha TRAV2*01 TRAJ21*01 CDR3: CAVCTLYNFNKFYF
beta TRBV6-5*01 TRBJ2-1*01 CDR3: CASLTDNNEQFF
B1: recognises [1].

B2: 05-HSD17B12225-244 (TCR)
alpha TRAV22*01 TRAJ18*01 CDR3: CAVAPYDRGSTLGRLYF
beta TRBV19*01 TRBJ2-5*01 CDR3: CASSTGQGLETQYF
B2: recognises [2].

B3: 05-LGSN296-315 (TCR)
alpha TRAV9-2*03 TRAJ32*01 CDR3: CALSDLSYGGATNKLIF
beta TRBV27*01 TRBJ1-5*01 CDR3: CASSKGQGLGNQPQHF
B3: recognises [3].

B4: 03-MAGE-A2108-127 (TCR)
alpha TRAV36/DV7*04 TRAJ40*01 CDR3: CAVEVNSGTYKYIF
beta TRBV2*01 TRBJ1-1*01 CDR3: CASRRDLAAFF
B4: recognises [4].

B5: 06-MAGE-A2108-127 (TCR)
alpha TRAV19*01 TRAJ40*01 CDR3: CALSVGTYKYIF
beta TRBV7-9*01 TRBJ2-5*01 CDR3: CASSPGTGGRETQYF
B5: recognises [4].

B6: 05-MUC5AC4922-4941 (TCR)
Valpha: QTVTQSQPEMSVQEAETVTLSCTYDTSESNYYLFWYKQPPSRQMILVIRQEAYKQQNATENRFSVNFQKAAKSFSLKISDSQLGDTAMYFCAFMKRAETSGSRLTFGEGTQLTVNP
beta TRBV6-2*01 TRBJ2-5*01 CDR3: CASSYWPTRETQYF
B6: recognises [5].
